Measurements as given in the DeepSol protein solubility set.

Test: soluble on expression in E. coli; label from the status in PepcDB or PDB records

Sequence	soluble on expression in E. coli
MGSDKIHHHHHHMYKTYREEERKSVDRGIFKEVPLPCAFLDEVALDRNIQLIIELSGNKKIRIASKSLRSVPVMQKILAANDRFQGIMCFSPREVLFLIEQGFNDLLLGYPAYDDRALHEISLLTKQGLIITCMVDCEDHIVYLEKIAEKSKGCFRVCLDIDMSSRFLNFHFGVKRSPVRDVQGALKIVKRLKESSFLILDGVMGYEAQIAGVGDHIPNQRVKSKVISYLKKKSVLEVKARRGHIVKEIQNLGIELRFVNGGGTGSIKTTEQDHSVSEITIGSAFYAPKLFDYYKEVQLQPAVGFALPVVRKPAPTIYTCLGGGYIASGAIGKDKEPEIWRPNGAKLLALEGAGEVQTPIFYNGEERVEIGDSILFRHSKAGELCERFPFLYRVKEGEIVGEYSTYRGDGQCFL	not soluble
MGSDKIHHHHHHMYLEAFTSHFNSIADSRQSAKVTYPLHDVLFVTLCGVIAGAEGWSEIHDYAAGHHTWFKEKGILTEGVPVDDTIARIISRIEPEQFRLCFANWMRAVHEMSDGHLIAIDGKTLRASYNREDRRSTIHMVNAFACANKVVLGQVKTANKSNEITAIPALLQLLDIEGALVSIDAMGCQTEIARQIVEQGGDYLLAVKVNQSSLHEAVVSAFSEARSNPLDGLVIEKNRGRIEARAYYVIPANQLQDNFPKWMKLNTLGMCLSYRHTKGKEAELTYRYYISSATLDEQLLANSVRGHWGIENSLHWVLDVSMKEDSCQIYQHHGAENWAMLRHISLNMLRAEPSKGSIPAKQKRAWMKPEYLESVLLAGLQLDEF	not soluble
MGSDKIHHHHHHMYLIRKKYITSLENILKKEGVIVDALSNDATIRYRSEEIGDEFTSVYNIQKLLNIAYASQGKESFGLLSYEYFHPGDYDIVNYIMMSSDNLLHALECLCRFSRLLYSGCQLTLDKKNTNTYCIGFTYLYPQDKNKEITRQFHELTVASLLAYCQWLTAANFTHFSSMEFSYPQPYGIRKYETLFACPMTFGTHRNCVYLNAEILLMPLVTSNASLFKLHEKHATCLIDILFNKTIKSRVRDSINKKLETGSCNIHSVASDLFMTPRTLQRRLEEEGAYFKDILEDVKMNLAEYYLIYSQYSLSQVAELVGYKDLSSFHRACLRWFRSSPGFFRERGCKKACLPMK	not soluble
MGSDKIHHHHHHMYRAVIFDFDGTIIDTEQHLFNVINKHLEMHNADPISIDFYRSSIGGAATDLHDHLIKAIGSENKDKLYEEHHLTSTTLPMIDTIKSLMAFLKQRHIPMAIATSSVKAEIMPTFKALGLDDYIEVVVGREDVEQVKPDPELYLSAVQQLNYMPTQCLAIEDSVNGATAAIAAGLDVIVNTNKMTSAQDFSNVDYVAKDIDYDQIVARFFTK	not soluble
MGSDKIHHHHHHMYVVFGATGQTGSAVANALLERNFPVRVVLRSDKAASTWREKGADVAIAEVTDVEAMTAAMREADAVYVMNPPAYNVSDMFALAEQIGECYVEALTNADARKVVLLSSVGSQHASGTGNILTTHILERMLGNLAVPVTVLRAASFMENWGSAAAIAAEQGVLPSFFAPLDRRLPMVSTEDIGRTAAEAMIEDWKGQRIIELHGPIDYSPNDVAAAFAAVLNRNVQAIAVPESDWQATISSFGFSPEAVNSYSEMMRGFNSGHIVFESSPEIETRTGQTAIEAAVDRLTGSKSK	not soluble
MGSDKIHHHHHHNGDEKIDSGMVQQDGEVLQLNVRVGDFAINDVSSIRATDSGSTGTFENGDRIGIIVLDADNNVLSDNIPYRYDGNIWSFDSNNDEGKTTIYYDNKATVYLAYFPYSKEVDNVINIDDLKGKFLPQGDQRSKDAYRASDLLVWSDTSGRPLKKLDIVFEHAYSLLSLSPSIKCKINGRRDFTYVPSSISDVSFNVGTEPLFPYQMNDGSYQIIISPKRAKVRWLYEYNKEMYSGAMPDTDLSANTCYTFTPVLKDIGDYTLDKAQMGDFYCKDESNNGYLIPGDVTALSADMNCLGIVLKSGKDSEGEWVDYCKYKQKYGITEMHTVHGYVLALYDANGGNACTWGLWSLTDINRGEPSTGFYGYKNTQGIISFAENENRTLKNGFPPVYWVTDYEYSHPAPANSSGWFLPSLGQCWYWMYNKAYLLSAVNKATGDNDYGWKLGYWSSSEDDYDPFLNAYYADTYVGAMDWDYKNSKHCVRACLAF	not soluble
MGSDKIHHHHHHNLKDSDRIFTNLYGRHDYRLKGAMARGDWHKTKEIILKGSDWILGELKTSGLRGRGGAGFPSGMKWGFMNKPFDGRPKYLVVNADEGEPGTCKDREIMRHDPHKLIEGCLIGGVAMGARAAYIYIRGEFYNEACILQEAINEAYKAGYLGKDCLGTGYNFDVFVHRGAGAYICGEETALIESLEGKQGKPRLKPPFPADIGLFGCPTTVTNVETVAVAPTICRRGGDWFASFGRERNRGTKLFCISGQVNNPCTVEEEMSVPLKDLIERHCGGVIGGWDNLLAIIPGGSSVPLMPKN	not soluble
MGSDKIHHHHHHNNDDDGTNKAQEIAGKYEGYSIGNCAMFTDYVMGEKSVATIVPNEDGTINVTYDSGSGEFKLNNIKVTSKTFEGSGQVELSMNDKPAGAKDFTLTGSIDEQQKLTLKVNVPSVMGGLTIEFIQGTLPISYHVSGTYNKEANLSVSVGSTTYPDITDCKVSIKRSSDDTVELTLKGLSNLNSSQTGRAMNLGDFTVTDVKVTSTDNSIFKIEGSINTTDTNNTPITGTLSGTVSNSETNITFTFKPGAMPIDITAMFKGKK	not soluble
MGSDKIHHHHHHQIPREPITQQPMSAMPPMPPAMQAPGSIYNPGYAGRPLFEDQRPRNVGDILTIVIAENINATKSSGANTNRQGNTSFDVPTAGFLGGLFNKANLSAQGANKFAATGGASAANTFNGTITVTVTNVLPNGNLVVSGEKQMLINQGNEFVRFSGIVNPNTISGQNSVYSTQVADARIEYSAKGYINEAETMGWLQRFFLNIAPW	not soluble
MGSDKIHHHHHHQIQQQSPYPKREFRGAWIQAVNGQFRGIPTEKLKQTLIDQLNSLQGAGINAIIFQVRPEADALYASQLEPWSRFLTGVQGQAPSPYWDPMQFMIDECHKRGMEFHAWINPYRVKTSLKSELSANHLYNIHPEWFVTYNNQLFFDPALPESRRHICMVVADIVSRYDVDAIHMDDYFYPYPAKGMDFPDDASFARYGGGFTNRADWRRSNVNILIQKIHETIRGLKPWVKFGISPFGIYRNEKNDPLGSKTNGLQNYDDLYADVLLWARNGWVDYNIPQIYWQIGHPAADYETLVKWWAKNTENRPLFIGQSVMNTIQNADPKNPSMNQLPRKMALERAYQTIGGSCQWPASAVVENAGKYRDALVQEYHKYPALVPVFDFMDDKAPGKVRKVKKVWTEDGYMLFWTPPKAKDEMDRAVQYVVYRFGDKEKVNIDDASHIVAVTRNNFYKLPYKDGKNKYRYVVTALDRLHNESKSVSKKVKL	not soluble
MGSDKIHHHHHHSDAGKDRRKKQKQKERQEDDDNNDEPAGGSEMGESGKAKDEKERTSVLEKQAGKKGDDESSSSEEDKEDEDEKKDNSTVIIREENEIIKAEKELDEEKVDQFRQSRVLRFTRSADEARVLPTDAAKFKRDTITQTLKSKELNDGVQLPLDKKPTATASTN	not soluble
MGSDKIHHHHHHSESIIEEAVRKGEVLKGEIVPIDTALFRYAYRMRVQGDKAVILDLHNADYYYHVFTYPDFQYQSSFGKRGEGPGESIYAANIRFAGQDTVWVLDDGKGRMYQYSGIAGGKTPKQEKDILLDKRLFRSLDFDLKDASTVVIPDYSGENRFSWASLSSGELLRKSEQIPVSDPELLRESAPAVAQGWNSFVSFSPDKKILVSVTQFGDRLDIYSMASQKHIGELGGDGEPQFKVSPEGYGLPAGRICYYDVQVTDQYIYTIYDGRKFKDIMKLADAYQQGGKILRISTHEGDVVKTYVLDRPIAGIYVDEAAGMLFGLDVNADEQIVKFPLELE	not soluble
MGSDKIHHHHHHSFSLPGYLFGRCPDYSITYDKNDAQEQKDVYICDGNKSVVRIDSYKWNSSSSDWVYDGKTVMENDNQGRTLVAISYSAADVAGEKTEYTYTGNGYEKFSVTSSSFEGGAWKAEAKVDIEATFNKDKYPVSILMTGTAEGETFKMKMEWSYDKNVTKTSSSIDFGGSWMLMSESKTEIVDAGNPMISKNYQKMYFPAETSWEYSGKTHDYFNGTTSIAPVVEENELKLHIYGDVLEVQGTESGISIYAITGGKMAESKSNRIDISRLPAGIYLLNTARGSIKFIHK	not soluble
MGSDKIHHHHHHSNINPSNGEGRDPLENFNRAMWKINYEVIDPHIFKPVAKGWRDYVPAPIKRSLVNIANNLDEPASFVNRLIEGDGQKAMRHFTRFWINSTFGLAGLIDWASQIKELKLENGNREFGDTLGHYGVPAGSYIMAPGYGPITPRQAVGKVVDSVYPMLSMLATPWMLTKFFVQSIDTRAQFINQEALLTNSADPYISFREAYFQNLRFKVKDGDVSDIQEQLSQEELDQID	not soluble
MGSDKIHHHHHHSSDYFTTNPEVLEAIGGKVPVTINGKFPEKYFKKNATVEVTPVLRWKGGEAKGQPAVFQGEKVEGNNQTIAYKAGGSYTMKASFDYVPEMANSELYLDFKITKGKKSYTIPSVKIADGVIATSELPTAASSNASYANDAFQRIIKDAQTANIMFLIQQANLRNSELNSDDIKEFHKKVAEINADTKNYKLNNIEISAYASPDGGVELNTGLAENREANTEKYMERQLKKGKIDTNLDAKYTAQDWEGFQELVSKSNLQDKDLILRVLSMYNDPEQREAEIKNISSVYKTLADEILPQLRRARLTANYDIIGRSDDEINEAFNSDPKVLSVEELLYAATLTNDNARKEAIFTKTTQLYPNDFRAYNNLGELAFAAGDAAKAESYFKQAASKNANAPEVNANLGLCELVKGNVAAAETYLGKATGANAAGEALGNLYIKQGQYDRAVNSFGDAKTNSAAQAQILAKDYNKAKATLSAIKNPDAMTDYLMAIVGARTNNASLVSSSIKSAIAKDPSMAEKAANDREFAKYADAIK	not soluble
MGSDKIHHHHHHTACETDNDSNPILNEPDTFTLNTPAYAANNVYDLKNAQTVELTCSQPDYGFPAATTYTVQASFEQDFIEATDESKANYTVLESTSPTAKINVDASELNNALLDLWTAVNGEQAELPTEPVAVYIRLKANITSSGKGVCFSNVIELPNVLISKSTSSLTPPKTMFIVGSMLDTDWKVWKPMAGVYGMDGQFYSMIYFDANSEFKFGTKENEYIGINDNRVTVTDKAGAGVSGSDNFVVENAGWYLFYVKAAVKGDDYQFTITFYPAEVYLFGNTTGGSWAFNDEWKFTVPATKDGNFVSPAMTASGEVRMCFKTDLDWWRTEFTLHDGEIFYRDFNLIDSWTEKGDGYSIQGSAGNVIHLNFTAGTGEKK	not soluble
MGSDKIHHHHHHTVDNRHDPLESMNRAVFSFNEKLDEVVLEPVARGYQRFIPSPVRMIVGNFFSNLDDVVVAANSLLQLKFMDAMASTTRIVINTTFGMLGAIDLASDISQVSDIDISKRNEDFGQTLGFYGIGSGPYLVLPILGPSTVRDTVGIGVDSTIFHPARAIYTSFDLLTVRLPVTTVEFIDRREQLLDLDKTLEEASLDKYEFVRDAYLQRRESLIKNDGAASEEEPVNFDEEEIIIDD	not soluble
MGSDKIHHHHHHVERIETHDATPGVVVEALTRGPGAICIRGLFSESQIAEARRVVMAHSEDRAQTVTHFQGQAAEEQRLHLQRRVWNLLAKGGVFSEMSEQPVIVGAMRRFLGDDFIMGSIAANRILPGGPGQEPHIDYPYWDYHMPDTFPLGINTSFALNAQVTIPLDPFTAETGATAFVPHTQHELRYPAEGDRFFERCQRMTAEPGDAIVFFGATWHCAMPNRSTQDRSAVLIQYLPKFVKPMEDLRAMVGEDFVRRASPTMRQLLGLNFPYPQNLDEIAVATNAEGRKNAMR	not soluble
MGSDKIHHHHHHVGAGGRDVVWTPRSLYLTDFIHANLLEKLKMQTLIIYSTIDGQTLAICQKIKLFAEQAGENVSLVTLEQAEALSLADFDKVLIGASIRYGKYRPELYQFVNRHHAVLDTKINGFFSVNVVARKPLKNTPETNPYMQKFLKLSLWQPQHLAVFAGKIDYPKYSFFDRTMIRFIMWMTKGPTDINGTFEFTDWAKVDAFGTDFSHQ	not soluble
